The target in the data set is tropomyosin-receptor kinase B-full-length (TrkB-FL), endogenous rat, Q63604.
Sequence of tropomyosin-receptor kinase B-full-length (TrkB-FL), endogenous rat, Q63604 (Q63604 32-821): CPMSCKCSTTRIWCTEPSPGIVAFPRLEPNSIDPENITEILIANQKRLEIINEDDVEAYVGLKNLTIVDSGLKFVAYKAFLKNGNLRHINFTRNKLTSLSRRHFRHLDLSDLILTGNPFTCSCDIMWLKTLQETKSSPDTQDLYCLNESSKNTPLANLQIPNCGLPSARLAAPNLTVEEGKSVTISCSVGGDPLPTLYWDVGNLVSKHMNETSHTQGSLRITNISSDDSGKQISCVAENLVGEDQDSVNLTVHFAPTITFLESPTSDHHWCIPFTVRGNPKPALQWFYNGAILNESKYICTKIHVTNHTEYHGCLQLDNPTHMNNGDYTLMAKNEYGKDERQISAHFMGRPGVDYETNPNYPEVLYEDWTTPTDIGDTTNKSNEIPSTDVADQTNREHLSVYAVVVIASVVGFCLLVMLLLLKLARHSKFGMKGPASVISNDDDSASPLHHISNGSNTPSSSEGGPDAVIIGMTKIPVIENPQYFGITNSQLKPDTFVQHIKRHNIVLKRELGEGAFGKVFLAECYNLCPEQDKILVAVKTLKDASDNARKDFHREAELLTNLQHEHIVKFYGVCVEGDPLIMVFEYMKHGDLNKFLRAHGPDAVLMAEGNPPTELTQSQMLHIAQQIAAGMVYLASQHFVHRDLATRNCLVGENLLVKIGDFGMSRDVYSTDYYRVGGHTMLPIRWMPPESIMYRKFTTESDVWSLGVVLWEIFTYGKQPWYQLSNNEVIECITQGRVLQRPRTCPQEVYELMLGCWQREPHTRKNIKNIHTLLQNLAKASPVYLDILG

B1: purified rat m-calpain (protein)
chain: MAGIAMKLAKDREAAEGLGSHERAIKYLNQDYETLRNECLEAGALFQDPSFPALPSSLGFKELGPYSSKTRGIEWKRPTEICADPQFIIGGATRTDICQGALGDCWLLAAIASLTLNEEILARVVPLDQSFQENYAGIFHFQFWQYGEWVEVVVDDRLPTKDGELLFVHSAEGSEFWSALLEKAYAKINGCYEALSGGATTEGFEDFTGGIAEWYELRKPPPNLFKIIQKALEKGSLLGCSIDITSAADSEAVTYQKLVKGHAYSVTGAEEVESSGSLQKLIRIRNPWGQVEWTGKWNDNCPSWNTVDPEVRANLTERQEDGEFWMSFSDFLRHYSRLEICNLTPDTLTCDSYKKWKLTKMDGNWRRGSTAGGCRNYPNTFWMNPQYLIKLEEEDEDDEDGERGCTFLVGLIQKHRRRQRKMGEDMHTIGFGIYEVPEELTGQTNIHLSKNFFLTTRARERSDTFINLREVLNRFKLPPGEYVLVPSTFEPHKNGDFCIRVFSEKKADYQTVDDEIEANIEEIEANEEDIGDGFRRLFAQLAGEDAEISAFELQTILRRVLAKREDIKSDGFSIETCKIMVDMLDEDGSGKLGLKEFYILWTKIQKYQKIYREIDVDRSGTMNSYEMRKALEEAGFKLPCQLHQVIVARFADDELIIDFDNFVRCLVRLEILFKIFKQLDPENTGTIQLDLISWLSFSVL
B1: the “TrkB-FL protein levels and TrkB-ICD formation in DIV8 neuronal cultures lysate (western blot, enzyme cleavage)” value was “decrease of TrkB-FL protein levels with concomitant TrkB-ICD formation when both exogenous m-calpain (1 or 2 EU) and CaCl2 (2 mM) were added”; the “TrkB-FL protein levels and TrkB-ICD formation in adult rat brain cortex homogenate (western blot, enzyme cleavage)” value was “decrease of TrkB-FL protein levels with concomitant TrkB-ICD formation when both exogenous m-calpain (1 or 2 enzymatic units, EU) and CaCl2 (2 mM) were added”.

Values taken from patent US20230321189.
